In PMC5922973, “Topoisomerase VI senses and exploits both DNA crossings and bends to facilitate strand passage” (eLife, 2018):

How the values were obtained:
[1] = biological target: T1, topo VI KGRR-EEE K186E;R188E;R189E (Methanosarcina mazei) (UniProt Q8PUB7+Q8PUB8); assay: competition (fluorescence anisotropy); conditions: vs FAM 70 bp; FA: 20 nM probe, 50 mM K-glutamate, 20 mM HEPES-KOH pH 7.5, 10 mM MgCl2, 5% glycerol, 1 mM TCEP, 0.1 mg/mL BSA; incubated on ice, read at ambient temperature …
T1 sequence 1: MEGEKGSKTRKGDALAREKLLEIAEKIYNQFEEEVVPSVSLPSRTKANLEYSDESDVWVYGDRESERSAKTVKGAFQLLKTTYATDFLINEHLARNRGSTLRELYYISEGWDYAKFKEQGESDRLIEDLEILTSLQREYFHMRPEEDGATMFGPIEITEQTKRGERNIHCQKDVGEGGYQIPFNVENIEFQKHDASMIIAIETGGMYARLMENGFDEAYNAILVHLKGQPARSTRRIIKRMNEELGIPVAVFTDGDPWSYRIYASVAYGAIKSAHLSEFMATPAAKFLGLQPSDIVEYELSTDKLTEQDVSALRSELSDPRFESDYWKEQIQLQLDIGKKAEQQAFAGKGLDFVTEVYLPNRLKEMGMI
T1 sequence 2: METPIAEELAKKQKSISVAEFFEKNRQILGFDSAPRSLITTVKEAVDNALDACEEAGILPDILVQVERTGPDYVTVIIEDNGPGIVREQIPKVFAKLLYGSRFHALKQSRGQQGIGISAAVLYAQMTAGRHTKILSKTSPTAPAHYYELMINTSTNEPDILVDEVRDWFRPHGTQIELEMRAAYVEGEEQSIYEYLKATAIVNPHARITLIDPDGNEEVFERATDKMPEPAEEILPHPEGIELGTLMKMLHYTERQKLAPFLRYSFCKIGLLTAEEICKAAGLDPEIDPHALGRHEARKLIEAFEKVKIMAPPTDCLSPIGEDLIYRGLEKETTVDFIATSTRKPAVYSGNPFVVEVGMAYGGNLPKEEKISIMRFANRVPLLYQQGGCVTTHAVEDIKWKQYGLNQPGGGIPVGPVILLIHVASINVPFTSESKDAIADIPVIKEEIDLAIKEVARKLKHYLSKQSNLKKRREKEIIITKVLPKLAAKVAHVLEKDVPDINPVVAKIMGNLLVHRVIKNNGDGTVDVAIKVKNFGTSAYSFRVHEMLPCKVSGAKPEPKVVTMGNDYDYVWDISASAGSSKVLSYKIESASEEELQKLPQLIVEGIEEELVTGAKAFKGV

[2] = biological target: T2, topo VI H2TH-AAA R263A;K268A;K308A (Methanosarcina mazei) (UniProt Q8PUB7+Q8PUB8); assay: competition (fluorescence anisotropy); conditions: vs FAM 70 bp; FA: 20 nM probe, 50 mM K-glutamate, 20 mM HEPES-KOH pH 7.5, 10 mM MgCl2, 5% glycerol, 1 mM TCEP, 0.1 mg/mL BSA; incubated on ice, read at ambient temperature …
T2 sequence 1: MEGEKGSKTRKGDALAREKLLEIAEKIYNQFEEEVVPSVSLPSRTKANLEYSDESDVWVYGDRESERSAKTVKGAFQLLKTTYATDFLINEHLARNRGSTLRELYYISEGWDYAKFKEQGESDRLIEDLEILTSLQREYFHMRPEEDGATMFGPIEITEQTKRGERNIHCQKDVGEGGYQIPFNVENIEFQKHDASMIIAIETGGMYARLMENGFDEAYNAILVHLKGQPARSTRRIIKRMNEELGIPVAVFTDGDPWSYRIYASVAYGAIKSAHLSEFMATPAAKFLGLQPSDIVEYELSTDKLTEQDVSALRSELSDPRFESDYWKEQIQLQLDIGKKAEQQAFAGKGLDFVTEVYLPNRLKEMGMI
T2 sequence 2: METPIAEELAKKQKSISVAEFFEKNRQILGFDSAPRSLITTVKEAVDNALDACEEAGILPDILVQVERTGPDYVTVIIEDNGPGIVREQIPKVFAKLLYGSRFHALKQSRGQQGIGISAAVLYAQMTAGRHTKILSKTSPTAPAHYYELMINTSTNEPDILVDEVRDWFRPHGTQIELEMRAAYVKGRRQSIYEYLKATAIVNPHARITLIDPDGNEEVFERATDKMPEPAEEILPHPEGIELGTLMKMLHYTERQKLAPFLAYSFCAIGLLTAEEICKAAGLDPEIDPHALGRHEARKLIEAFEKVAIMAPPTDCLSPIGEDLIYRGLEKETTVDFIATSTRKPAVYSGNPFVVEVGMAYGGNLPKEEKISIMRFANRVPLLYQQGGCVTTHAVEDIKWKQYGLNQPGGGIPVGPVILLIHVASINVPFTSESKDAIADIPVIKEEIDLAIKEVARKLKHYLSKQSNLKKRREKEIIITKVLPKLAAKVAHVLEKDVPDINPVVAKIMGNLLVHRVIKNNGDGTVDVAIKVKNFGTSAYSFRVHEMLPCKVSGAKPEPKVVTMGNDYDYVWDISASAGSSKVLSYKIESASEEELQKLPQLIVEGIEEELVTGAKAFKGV

[3] = biological target: T3, topo VI KGRR-AAA K186A;R188A;R189A (Methanosarcina mazei) (UniProt Q8PUB7+Q8PUB8); assay: competition (fluorescence anisotropy); conditions: vs FAM 70 bp; FA: 20 nM probe, 50 mM K-glutamate, 20 mM HEPES-KOH pH 7.5, 10 mM MgCl2, 5% glycerol, 1 mM TCEP, 0.1 mg/mL BSA; incubated on ice, read at ambient temperature …
T3 sequence 1: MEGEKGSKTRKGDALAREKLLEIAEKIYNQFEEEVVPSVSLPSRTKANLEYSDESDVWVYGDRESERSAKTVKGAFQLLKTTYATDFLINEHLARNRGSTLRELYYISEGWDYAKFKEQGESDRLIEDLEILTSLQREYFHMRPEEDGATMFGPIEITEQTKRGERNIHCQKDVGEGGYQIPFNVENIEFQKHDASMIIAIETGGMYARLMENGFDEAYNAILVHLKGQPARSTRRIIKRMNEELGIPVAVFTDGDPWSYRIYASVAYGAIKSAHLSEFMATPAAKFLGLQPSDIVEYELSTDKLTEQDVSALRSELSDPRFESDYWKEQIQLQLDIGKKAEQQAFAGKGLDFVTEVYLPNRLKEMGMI
T3 sequence 2: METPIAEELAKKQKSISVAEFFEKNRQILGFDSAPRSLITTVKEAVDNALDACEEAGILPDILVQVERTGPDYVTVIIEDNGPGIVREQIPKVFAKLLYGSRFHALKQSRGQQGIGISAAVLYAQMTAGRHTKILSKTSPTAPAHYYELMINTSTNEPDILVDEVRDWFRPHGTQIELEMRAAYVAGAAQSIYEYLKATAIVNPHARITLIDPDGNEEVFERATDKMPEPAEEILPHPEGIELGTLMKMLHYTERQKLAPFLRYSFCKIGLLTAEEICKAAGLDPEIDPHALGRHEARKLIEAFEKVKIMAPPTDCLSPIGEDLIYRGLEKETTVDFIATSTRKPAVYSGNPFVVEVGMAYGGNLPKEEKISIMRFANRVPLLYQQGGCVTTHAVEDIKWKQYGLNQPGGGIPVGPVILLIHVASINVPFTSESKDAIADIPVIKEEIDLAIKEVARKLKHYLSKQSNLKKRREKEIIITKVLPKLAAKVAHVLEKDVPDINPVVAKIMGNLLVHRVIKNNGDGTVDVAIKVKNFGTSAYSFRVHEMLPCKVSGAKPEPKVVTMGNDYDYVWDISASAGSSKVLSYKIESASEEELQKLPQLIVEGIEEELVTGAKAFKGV

[4] = biological target: T4, topo VI holoenzyme WT (Methanosarcina mazei) (UniProt Q8PUB7+Q8PUB8); assay: competition (fluorescence anisotropy); conditions: vs FAM 70 bp; FA: 20 nM probe, 50 mM K-glutamate, 20 mM HEPES-KOH pH 7.5, 10 mM MgCl2, 5% glycerol, 1 mM TCEP, 0.1 mg/mL BSA; incubated on ice, read at ambient temperature …
T4 sequence 1: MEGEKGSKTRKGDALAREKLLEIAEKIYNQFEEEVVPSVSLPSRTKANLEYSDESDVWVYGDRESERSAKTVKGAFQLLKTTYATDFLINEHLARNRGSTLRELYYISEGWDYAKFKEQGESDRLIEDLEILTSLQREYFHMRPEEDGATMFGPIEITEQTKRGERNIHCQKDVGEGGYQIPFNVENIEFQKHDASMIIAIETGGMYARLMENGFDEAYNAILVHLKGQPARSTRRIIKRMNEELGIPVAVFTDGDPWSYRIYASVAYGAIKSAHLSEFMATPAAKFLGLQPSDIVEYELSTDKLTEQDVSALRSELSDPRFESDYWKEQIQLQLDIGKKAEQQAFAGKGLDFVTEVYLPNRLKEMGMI
T4 sequence 2: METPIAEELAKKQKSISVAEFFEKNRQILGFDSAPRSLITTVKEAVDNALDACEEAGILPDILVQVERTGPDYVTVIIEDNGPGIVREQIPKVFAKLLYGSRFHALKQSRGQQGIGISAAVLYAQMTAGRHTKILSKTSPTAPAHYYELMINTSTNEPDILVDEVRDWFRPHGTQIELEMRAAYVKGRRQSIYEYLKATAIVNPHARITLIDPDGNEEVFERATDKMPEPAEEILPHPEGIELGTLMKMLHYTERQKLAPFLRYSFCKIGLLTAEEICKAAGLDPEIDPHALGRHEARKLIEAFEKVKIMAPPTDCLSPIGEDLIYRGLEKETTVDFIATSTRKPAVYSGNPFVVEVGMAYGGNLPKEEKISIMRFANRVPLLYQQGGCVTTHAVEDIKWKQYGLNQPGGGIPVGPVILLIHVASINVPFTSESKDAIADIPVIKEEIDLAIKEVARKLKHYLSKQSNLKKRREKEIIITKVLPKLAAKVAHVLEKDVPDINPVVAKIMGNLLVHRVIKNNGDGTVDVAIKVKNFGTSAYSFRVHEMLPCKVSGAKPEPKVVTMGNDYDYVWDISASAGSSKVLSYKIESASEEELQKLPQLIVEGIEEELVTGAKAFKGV

[5] = biological target: T5, topo VI H2TH-EEE R263E;K268E;K308E (Methanosarcina mazei) (UniProt Q8PUB7+Q8PUB8); assay: competition (fluorescence anisotropy); conditions: vs FAM 70 bp; FA: 20 nM probe, 50 mM K-glutamate, 20 mM HEPES-KOH pH 7.5, 10 mM MgCl2, 5% glycerol, 1 mM TCEP, 0.1 mg/mL BSA; incubated on ice, read at ambient temperature …
T5 sequence 1: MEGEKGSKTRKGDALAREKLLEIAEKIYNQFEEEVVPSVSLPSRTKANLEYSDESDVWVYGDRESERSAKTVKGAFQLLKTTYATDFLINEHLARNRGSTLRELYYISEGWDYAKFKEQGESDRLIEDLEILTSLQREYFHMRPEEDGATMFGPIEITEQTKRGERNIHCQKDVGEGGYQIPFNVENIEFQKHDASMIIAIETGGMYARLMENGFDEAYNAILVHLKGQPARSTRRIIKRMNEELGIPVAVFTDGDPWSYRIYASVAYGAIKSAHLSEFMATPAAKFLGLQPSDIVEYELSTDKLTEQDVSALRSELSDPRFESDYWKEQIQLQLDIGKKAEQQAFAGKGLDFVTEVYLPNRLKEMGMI
T5 sequence 2: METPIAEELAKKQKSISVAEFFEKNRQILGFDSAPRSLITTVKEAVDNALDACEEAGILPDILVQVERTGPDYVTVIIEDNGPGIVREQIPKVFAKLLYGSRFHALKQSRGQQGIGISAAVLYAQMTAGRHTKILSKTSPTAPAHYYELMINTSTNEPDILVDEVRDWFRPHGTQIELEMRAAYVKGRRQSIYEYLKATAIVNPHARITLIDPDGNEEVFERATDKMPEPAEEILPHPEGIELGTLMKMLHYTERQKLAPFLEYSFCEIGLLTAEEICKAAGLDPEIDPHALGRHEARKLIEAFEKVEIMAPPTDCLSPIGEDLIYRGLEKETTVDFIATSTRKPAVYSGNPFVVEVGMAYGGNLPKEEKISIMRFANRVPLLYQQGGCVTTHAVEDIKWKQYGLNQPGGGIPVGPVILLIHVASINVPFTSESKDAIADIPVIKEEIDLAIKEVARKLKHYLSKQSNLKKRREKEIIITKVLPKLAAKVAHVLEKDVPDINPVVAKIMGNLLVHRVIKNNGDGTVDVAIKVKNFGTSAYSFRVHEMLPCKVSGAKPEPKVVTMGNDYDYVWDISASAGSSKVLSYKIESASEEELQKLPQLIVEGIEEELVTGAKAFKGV

[6] = biological target: T4, topo VI holoenzyme WT (Methanosarcina mazei); assay: fluorescence anisotropy; conditions: FA: 20 nM probe, 50 mM K-glutamate, 20 mM HEPES-KOH pH 7.5, 10 mM MgCl2, 5% glycerol, 1 mM TCEP, 0.1 mg/mL BSA; incubated on ice, read at ambient temperature …

pSG483 negatively supercoiled plasmid
Ki [1]: 14.7 nM
Ki [2]: 1.3 nM
Ki [3]: 7.2 nM
Ki [4]: 0.6 nM
Ki [5]: 10 nM

80 bp duplex
binding signal (fold Kd of 60 bp duplex) [6]: 2
